Measurements from patent US20230220115A1 (BIOMOLECULAR, published 2023).
Changes are numbered by the printed parent chain. Like-named read-outs stand apart in the source and are kept apart here.

T1: recombinant human Fc gamma receptor CD32a 131H (human, UniProt P12318 36-218)
T1 sequence (looked up): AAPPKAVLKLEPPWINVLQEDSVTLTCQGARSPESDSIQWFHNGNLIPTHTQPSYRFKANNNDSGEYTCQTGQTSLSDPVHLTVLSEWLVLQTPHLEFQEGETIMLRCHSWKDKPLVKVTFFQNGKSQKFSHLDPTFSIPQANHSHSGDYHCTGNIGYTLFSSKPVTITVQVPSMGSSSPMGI

T2: recombinant human Fc gamma receptor CD32a 131R (human, UniProt P12318 36-218)
T2 sequence (looked up): T1 sequence (looked up) with H132R

T3: recombinant human Fc gamma receptor CD32b/c (human, UniProt P31994 46-217)
T3 sequence (looked up): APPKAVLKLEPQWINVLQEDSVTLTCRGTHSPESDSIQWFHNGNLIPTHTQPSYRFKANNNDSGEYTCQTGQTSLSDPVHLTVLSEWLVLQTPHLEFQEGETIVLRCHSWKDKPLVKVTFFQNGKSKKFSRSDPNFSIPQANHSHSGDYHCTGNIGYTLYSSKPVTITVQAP

T4: CD20 Lipoparticles (UniProt P11836 1-297)
T4 sequence (looked up): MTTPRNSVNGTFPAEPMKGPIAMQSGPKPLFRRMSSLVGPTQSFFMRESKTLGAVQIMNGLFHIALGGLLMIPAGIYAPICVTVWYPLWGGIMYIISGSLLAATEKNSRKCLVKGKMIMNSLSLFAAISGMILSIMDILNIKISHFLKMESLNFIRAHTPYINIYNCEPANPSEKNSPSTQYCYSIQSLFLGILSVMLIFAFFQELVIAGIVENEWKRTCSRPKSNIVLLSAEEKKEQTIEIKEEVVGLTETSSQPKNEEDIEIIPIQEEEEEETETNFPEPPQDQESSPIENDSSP

T5: CD19 (UniProt P15391 20-291)
T5 sequence (looked up): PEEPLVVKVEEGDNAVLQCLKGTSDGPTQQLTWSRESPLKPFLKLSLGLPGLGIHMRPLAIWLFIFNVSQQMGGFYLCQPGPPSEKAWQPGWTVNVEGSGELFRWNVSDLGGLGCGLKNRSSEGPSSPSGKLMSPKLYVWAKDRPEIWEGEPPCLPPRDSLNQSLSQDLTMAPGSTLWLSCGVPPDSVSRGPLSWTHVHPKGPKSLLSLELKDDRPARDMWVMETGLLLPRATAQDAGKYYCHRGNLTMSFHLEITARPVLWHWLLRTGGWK

B1: Rc66SIDE (One-arm antibody) (antibody, human IgG1, kappa)
light: QIVLSQSPAILSASPGEKVTMTCRASSSVSYIHWFQQKPGSSPKPWIYATSNLASGVPVRFSGSGSGTSYSLTISRVEAEDAATYYCQQWTSNPPTFGGGTKLEIKRTVAAPSVFIFPPSDEQLKSGTASVVCLLNNFYPREAKVQWKVDNALQSGNSQESVTEQDSKDSTYSLSSTLTLSKADYEKHKVYACEVTHQGLSSPVTKSFNRGEC
heavy: QVQLQQPGAELVKPGASVKMSCKASGYTFTSYNMHWVKQTPGRGLEWIGAIYPGNGDTSYNQKFKGKATLTADKSSSTAYMQLSSLTSEDSAVYYCARSTYYGGDWYFNVWGAGTTVTVSAASTKGPSVFPLAPSSKSTSGGTAALGCLVKDYFPEPVTVSWNSGALTSGVHTFPAVLQSSGLYSLSSVVTVPSSSLGTQTYICNVNHKPSNTKVDKKAEPKSCDKTHTCPPCPAPELLGGPDVFLFPPKPKDTLMISRTPEVTCVVVDVSHEDPEVKFNWYVDGVEVHNAKTKPREEQYNSTYRVVSVLTVLHQDWLNGKEYKCKVSNKALPAPEEKTISKAKGQPREPQVYVLPPSRDELTKNQVSLLCLVKGFYPSDIAVEWESNGQPENNYLTWPPVLDSDGSFFLYSKLTVDKSRWQQGNVFSCSVMHEALHNHYTQKSLSLSPGK
chain: CPPCPAPELLGGPDVFLFPPKPKDTLMISRTPEVTCVVVDVSHEDPEVKFNWYVDGVEVHNAKTKPREEQYNSTYRVVSVLTVLHQDWLNGKEYKCKVSNKALPAPEEKTISKAKGQPREPQVYVYPPSRDELTKNQVSLTCLVKGFYPSDIAVEWESNGQPENNYKTTPPVLDSDGSFALVSKLTVDKSRWQQGNVFSCSVMHEALHNHYTQKSLSLSPGK
B2: B19c66 (one-arm antibody) (antibody, human IgG1, kappa)
light: not shown
heavy: not shown
chain: B1 chain with D14S, E107I
B3: Rc66SIDE-P28-Rc66SIDE (antibody, human IgG1, kappa)
light: B1 light
heavy: B1 heavy
chain: B1 chain
B4: Rc66SIDE-P4-Rc66SIDE (antibody, human IgG1, kappa)
light: B1 light
heavy: B1 heavy
chain: B1 chain
B5: Rc66SIDE-P16-Rc66SIDE (antibody, human IgG1, kappa)
light: B1 light
heavy: B1 heavy
chain: B1 chain
B6: B19c66AAC9 (one-arm antibody) (antibody, human IgG1, kappa)
light: not shown
heavy: QVQLQQSGAELVRPGSSVKISCKASGYAFSSYWMNWVKQRPGQGLEWIGQIWPGDGDTNYNGKFKGKATLTADESSSTAYMQLSSLASEDSAVYFCARRETTTVGRYYYAMDYWGQGTTVTVSSASTKGPSVFPLAPSSKSTSGGTAALGCLVKDYFPEPVTVSWNSGALTSGVHTFPAVLQSSGLYSLSSVVTVPSSSLGTQTYICNVNHKPSNTKVDKKVEPKSCDKTHTCPPCPAPKRRGGPSVFLFPPKPKDTLMISRTPEVTCVVVDVSHEDPEVKFNWYVDGVEVHNAKTKPREEQYNSTYRVVSVLTVLHQDWLNGKEYKCKVSNKALPAPIEKTISKAKGQPREPQVYVLPPSRDELTKNQVSLLCLVKGFYPSDIAVEWESNGQPENNYLTWPPVLDSDGSFFLYSKLTVDKSRWQQGNVFSCSVMHEALHNHYTQKSLSLSPGK
chain: B1 chain with L9D, L10E, D14S, E107I

Legend:
[1] = target: recombinant human Fc gamma receptor CD16a 158F (FcRγIIIa) (human, UniProt P08637 17-208)
Chain of recombinant human Fc gamma receptor CD16a 158F (FcRγIIIa) (P08637 17-208 limits assumed): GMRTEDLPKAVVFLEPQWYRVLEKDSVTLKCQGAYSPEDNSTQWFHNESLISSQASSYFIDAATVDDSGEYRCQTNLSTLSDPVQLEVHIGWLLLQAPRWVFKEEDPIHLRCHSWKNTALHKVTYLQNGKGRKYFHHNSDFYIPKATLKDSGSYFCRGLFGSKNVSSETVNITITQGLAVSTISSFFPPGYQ

[2] = target: T6, recombinant human Fc gamma receptor CD16a 158V (FcRγIIIa) (human, UniProt P08637 17-208)
T6 sequence (P08637 17-208 F176V limits assumed): as the sequence (P08637 17-208 limits assumed) above, with F160V counted along it

[3] = target: recombinant human Fc gamma receptor CD16b (FcRγIIIb) (human, UniProt O75015 17-200)
Chain of recombinant human Fc gamma receptor CD16b (FcRγIIIb) (O75015 17-200 limits assumed): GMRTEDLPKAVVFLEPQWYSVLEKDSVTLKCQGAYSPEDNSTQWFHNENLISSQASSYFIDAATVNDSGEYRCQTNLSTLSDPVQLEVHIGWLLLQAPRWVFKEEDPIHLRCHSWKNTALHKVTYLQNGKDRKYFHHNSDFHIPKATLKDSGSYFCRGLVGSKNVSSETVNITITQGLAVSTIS

[4] = target: T1, recombinant human Fc gamma receptor …
[5] = target: T2, recombinant human Fc gamma receptor …
[6] = target: T3, recombinant human Fc gamma receptor …
CD20 Lipoparticles = target: T4, CD20 Lipoparticles
[7] = target: T6, recombinant human Fc gamma receptor …; remark: listed apart in the source
CD19 = target: T5, CD19
[8] = target: recombinant human Fc gamma receptor CD64 (FcRγI) (human, UniProt P12314 16-288)
Chain of recombinant human Fc gamma receptor CD64 (FcRγI) (P12314 16-288 limits assumed): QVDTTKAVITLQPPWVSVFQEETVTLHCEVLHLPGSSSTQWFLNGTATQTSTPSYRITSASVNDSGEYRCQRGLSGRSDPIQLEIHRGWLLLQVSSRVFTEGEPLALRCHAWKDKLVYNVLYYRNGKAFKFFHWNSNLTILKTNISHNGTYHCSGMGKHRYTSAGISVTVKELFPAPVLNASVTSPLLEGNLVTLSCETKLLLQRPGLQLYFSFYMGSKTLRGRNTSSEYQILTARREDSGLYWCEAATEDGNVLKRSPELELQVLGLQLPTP

| Binder | Kd [1] [nM] | Kd [2] [nM] | Kd [3] [nM] | Kd [4] [nM] | Kd [5] [nM] | Kd [6] [nM] | Kd (CD20 Lipoparticles) [nM] | Kd [7] [nM] | Kd (CD19) [nM] | Kd [8] [nM] |
| --- | --- | --- | --- | --- | --- | --- | --- | --- | --- | --- |
| B1 | 76.8 | 46.2 | 163 | 255 | 202 | 253 | 21.4 | – | – | – |
| B2 | – | – | – | – | – | – | – | 234 | 21.8 | – |
| B3 | 6.62 | 4.98 | 5.64 | 5.42 | 8.11 | 7.28 | < 0.001 | – | – | 1.14 |
| B4 | 3.87 | 1.14 | 1.05 | 2.54 | 4.93 | 3.17 | < 0.001 | – | – | < 0.001 |
| B5 | 2.71 | 0.257 | < 0.001 | 0.808 | 1.83 | 0.556 | < 0.001 | – | – | < 0.001 |
| B6 | – | – | – | – | – | – | – | – | 21 | – |
